Experimental data as given in article PMC7418559 (2020).

Biological target: CK2β 1-193 (Homo sapiens, UniProt P67870)
Experiment: microscale thermophoresis

Chain of CK2β 1-193 (P67870 1-193): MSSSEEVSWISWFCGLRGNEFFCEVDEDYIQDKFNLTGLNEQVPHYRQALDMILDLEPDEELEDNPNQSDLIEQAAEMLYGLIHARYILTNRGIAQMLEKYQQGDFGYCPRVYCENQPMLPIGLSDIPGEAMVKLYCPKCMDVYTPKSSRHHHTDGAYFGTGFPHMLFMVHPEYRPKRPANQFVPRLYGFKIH

B1: CK2α 1-335 (protein)
chain: MSGPVPSRARVYTDVNTHRPREYWDYESHVVEWGNQDDYQLVRKLGRGKYSEVFEAINITNNEKVVVKILKPVKKKKIKREIKILENLRGGPNIITLADIVKDPVSRTPALVFEHVNNTDFKQLYQTLTDYDIRFYMYEILKALDYCHSMGIMHRDVKPHNVMIDHEHRKLRLIDWGLAEFYHPGQEYNVRVASRYFKGPELLVDYQMYDYSLDMWSLGCMLASMIFRKEPFFHGHDNYDQLVRIAKVLGTEDLYDYIDKYNIELDPRFNDILGRHSRKRWERFVHSENQHLVSPEALDFLDKLLRYDHQSRLTAREAMEHPYFYTVVKDQARMG
modifications: CK2β fluorescently labelled (RED-NHS)
Question: How did the Kd turn out when B1 was run?
Answer: The Kd was 12 nM.
